According to publication doi:10.1101/2025.08.03.668247, “The structure of Egalitarian in complex with the K10 mRNA localization signal reveals a modular binding surface required for function”:
Changes are numbered by the printed parent chain.

Key:
Assay in all cases: fluorescence anisotropy; FA: 20 mM HEPES-NaOH pH 7.5, 100 mM NaCl, 10% glycerol, 20 C, 10 nM FAM-RNA; competition: 150 nM Egl512-819 + 10 nM FAM-K10 TLS, same buffer
Conditions in all cases: protein: recombinant; tags: N-terminal GST; label: 5'-6-FAM; hairpin with two bulges
[1] = target: T1, K659E/K754E (Drosophila melanogaster, UniProt Q9W1K4 512-819, K659E;K754E)
T1 sequence: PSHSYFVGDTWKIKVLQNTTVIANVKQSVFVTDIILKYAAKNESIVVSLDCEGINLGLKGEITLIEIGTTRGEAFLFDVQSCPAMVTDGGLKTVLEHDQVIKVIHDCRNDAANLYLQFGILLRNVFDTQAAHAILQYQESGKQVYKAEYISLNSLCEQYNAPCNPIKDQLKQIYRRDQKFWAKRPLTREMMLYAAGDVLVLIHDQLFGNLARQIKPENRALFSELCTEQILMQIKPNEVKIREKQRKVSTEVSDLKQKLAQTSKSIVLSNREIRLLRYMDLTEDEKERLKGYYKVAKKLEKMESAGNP

[2] = target: T2, K751E (Drosophila melanogaster, UniProt Q9W1K4 512-819, K751E)
T2 sequence: T1 sequence with E148K, K240E, E243K

[3] = target: T3, R788E (Drosophila melanogaster, UniProt Q9W1K4 512-819, R788E)
T3 sequence: T1 sequence with E148K, E243K, R277E

[4] = target: T4, K755A (Drosophila melanogaster, UniProt Q9W1K4 512-819, K755A)
T4 sequence: T1 sequence with E148K, E243K, K244A

[5] = target: T5, K678E (Drosophila melanogaster, UniProt Q9W1K4 512-819, K678E)
T5 sequence: T1 sequence with E148K, K167E, E243K

[6] = target: T6, Egl512-931 (Drosophila melanogaster, UniProt Q9W1K4 512-931)
T6 sequence: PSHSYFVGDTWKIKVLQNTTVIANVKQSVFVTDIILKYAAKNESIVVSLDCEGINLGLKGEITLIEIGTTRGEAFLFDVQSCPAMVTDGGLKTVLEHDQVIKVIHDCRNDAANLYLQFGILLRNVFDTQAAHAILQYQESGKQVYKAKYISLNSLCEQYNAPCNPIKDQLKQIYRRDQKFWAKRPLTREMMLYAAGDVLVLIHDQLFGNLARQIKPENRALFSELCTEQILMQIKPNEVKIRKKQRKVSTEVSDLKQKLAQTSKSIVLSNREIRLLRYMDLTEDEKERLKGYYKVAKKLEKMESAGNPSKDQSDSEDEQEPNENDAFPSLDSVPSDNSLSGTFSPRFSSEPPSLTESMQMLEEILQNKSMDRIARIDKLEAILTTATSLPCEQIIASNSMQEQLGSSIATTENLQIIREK

Work on CUUGAUUGUAUUUUUAAAUUAAUUCUUAAAAACUACAAAUUAAG (structured_RNA) [K10 TLS (FAM)] yielded a Kd [1] of 433 ± 42 nM, a Kd [2] of 139 ± 28 nM and a Kd [3] of 313 ± 23 nM. For the same binder, the Kd [4] was 131 ± 5 nM, the Kd [5] was 195 ± 9 nM and the Kd [6] was 164 ± 7 nM.
